Patent US20220177457A1, “SMALL MOLECULES THAT BIND CYCLIN-DEPENDENT KINASE INHIBITOR 1B (P27KIP1)” (St. Jude Children's Hospital, Inc., priority 2019, published 2022)

How the values were obtained:
p27-KID = p27-KID (Homo sapiens, UniProt P46527); experiment: 2D 1H-15N HSQC NMR screening and titration of compounds into 15N-p27-KID; details: read-out: Kd (from CSP); single-site binding model fitted to chemical shift perturbation; 298 K, pH 6.5
Experimental: Two-dimensional (2D)^1H-^15N HSQC NMR experiments were performed using a SampleJet sample changer. […] Chemical shift perturbation values were quantified using the equation Δδ=√{square root over (ΔδH^2+(0.2ΔδN)^2)}. The statistical significance was based on a threshold defined as the average CSP value plus two times the standard deviation of the mean (Δδave+2σ).

Cdk2/cyclin A [1] = target: T1, Cdk2/cyclin A (Homo sapiens, UniProt P24941); experiment: Cdk2/cyclin A kinase activity assay (32P incorporation into Histone H1); format: biochemical; details: Histone H1 as substrate; read-out: Half maximal Cdk2/cyclin A inhibitory concentration (IC50)
T1 construct: Full length human Cdk2; made in house
Experimental: Cdk2/Cyclin A ([…]) was mixed with Histone H1 (50 μM; EMD Millipore) and varied amounts of p27 constructs and incubated for 3 hours at 4° C. […] IC50 values were determined by curve fitting using GraphPad Prizm 7 software. Experiments were performed in triplicate and mean IC50 and standard deviations of the mean values are reported.

Cdk2/cyclin A [2] = target: T1, Cdk2/cyclin A; experiment: Isothermal titration calorimetry of p27 variants into Cdk2/cyclin A; details: ITC at 25° C., binding to Cdk2/cyclin A
Experimental: (§1) ITC experiments were performed using a MicroCal ITC200 calorimeter with p27 variants in the syringe and Cdk2/cyclin A and Cdk2, respectively, in the cell. Prior to each set of experiments, protein samples were extensively dialyzed together against ITC buffer containing 20 mM HEPES, pH 7.5, 300 mM NaCl, 5 mM TCEP. A standard titration consisted of 19 injections of 2-μl of p27 variant (100 μM) into a solution of Cdk2/cyclin A (10 μM) or Cdk2 (10 μM), respectively. The time interval between injections was 180 s. Experiments were performed at 25° C. Thermodynamic parameters were obtained by fitting the raw data using Origin software (OriginLab) according to the manufacturers instructions using a 1:1 binding model to obtain values of the enthalpy of binding (ΔH), Gibbs free energy of binding (ΔG), entropy of binding (ΔS), and stoichiometry factor (N). Experiments were performed in triplicate and mean and standard deviations of the mean values of these parameters are reported.

Cdk2 = target: T2, Cdk2 (Homo sapiens, UniProt P24941); experiment: Isothermal titration calorimetry of p27 variants into Cdk2; details: ITC at 25° C., binding to Cdk2
T2 construct: Full length human Cdk2; made in house
Experimental: as §1

p27-KID, sequence (P46527 22-105): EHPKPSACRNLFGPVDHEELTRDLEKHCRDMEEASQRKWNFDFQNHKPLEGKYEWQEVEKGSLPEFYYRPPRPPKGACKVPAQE

Compound | Kd (p27-KID) | IC50 (Cdk2/cyclin A [1]) | Kd (Cdk2/cyclin A [2]) | ΔG (Cdk2/cyclin A [2]) | ΔH (Cdk2/cyclin A [2]) | −TΔS (Cdk2/cyclin A [2]) | Kd (Cdk2) | ΔG (Cdk2) | ΔH (Cdk2) | −TΔS (Cdk2)
O=c1oc2cc(OCCO)ccc2c2c1CCCC2 [SJ710] | 4800 ± 1300 µM |  |  |  |  |  |  |  |  | 
p27-D2: D2 sub-domain of p27, residues 58-105 of human p27 (RKWNFDFQNHKPLEGKYEWQEVEKGSLPEFYYRPPRPPKGACKVPAQE; UniProt P46527 58-105, looked up, fragment) |  | 0.067 ± 0.022 µM | 0.134 ± 0.0235 µM | -9.4 ± 0.1 kcal/mol | -24.7 ± 1.8 kcal/mol | 15.3 ± 1.9 kcal/mol | 0.231 ± 0.0674 µM | -9.1 ± 0.2 kcal/mol | -24.5 ± 0.7 kcal/mol | 15.4 ± 0.9 kcal/mol
